# In the nanobody polyreactivity screen of Harvey et al. (2022):
# Experiment: yeast display, Sf9 membrane polyspecificity reagent, FACS + sequencing; frameworks hold sequencing errors
# Outline: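 After 36–48 hours of galactose induction, yeast (Saccharomyces cerevisiae BJ5465) displaying a synthetic nanobody library were stained at 4 °C for 1 hour with 10% biotinylated, detergent-solubilized Sf9 membrane reagent. Streptavidin microbeads enriched the stained cells before FACS sorting into low and high (top ~1%) gates on anti-HA and streptavidin fluorescence. Each clone's polyreactivity label reflects its gate of origin.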
sequence,measurement,value
QVQLVESGGGLVQAGGSLRLSCAASGSTFYDYVMGWYRQAPGKERELVAAITGDGTTDYADSVKGRFTISRDNAKNTVYLQMNSLKPEDTAVYYCNADISLDYDYWGQGTQVTVSS,polyreactivity (PSR sort gate),low polyreactivity
QVQLVESGGGLVQAGGSLRLSCAASGSTFYENAMGWYRQAPGKERELVAAITWSGGRTYYADSVKGRFTISRDNAKNTVYLQMNSLKPEDTAVYYCNARARSRKFYYWGQGTQVTVSS,polyreactivity (PSR sort gate),high polyreactivity
QVQLVESGGGLVQAGGSLRLSCAASGSTFYFNAMGWYRQAPGKEREFVAAITYSGGSTNYADSVKGRFTISRDNAKNTVYLQMNSLKPEDTAVYYCAARRYSYYYWYDYWGQGTQVTVSS,polyreactivity (PSR sort gate),high polyreactivity
QVQLVESGGGLVQAGGSLRLSCAASGSTFYFNAMGWYRQAPGKERELVATISDNDGSTNYADSVKGRFTISRDNAKNTVYLQMNSLKPEDTAVYYCNADWYYYYEEDDYWGQGTQVTVSS,polyreactivity (PSR sort gate),low polyreactivity
QVQLVESGGGLVQAGGSLRLSCAASGSTFYFYAMGLFRQAPGKERELVAAITSSGGSTYYAESVKGRFTISRDNAKNTVYLQMISQKPEDTAVYYCATTYPQRYNGYDYWGQGTQVTVSS,polyreactivity (PSR sort gate),low polyreactivity
QVQLVESGGGLVQAGGSLRLSCAASGSTFYGKAMGWYRQAPGKERELVDTISWSGGSTYYADSVKGRFTISRDNAKNTVYLQMNSVKPEDTAVYYCNAEITTKSLVTRYSWYGGDYWRQGTQVTVSS,polyreactivity (PSR sort gate),low polyreactivity
QVQLVESGGGLVQAGGSLRLSCAASGSTFYGNAMGWYRQAPGKERELVGAIRWRGGRTYYADSVKGRFTISRDNANNTVYLQMNSLKPEDTAVYYCNALPGVSHTQYDRVGYWGQGTQVTVSS,polyreactivity (PSR sort gate),high polyreactivity
QVQLVESGGGLVQAGGSLRLSCAASGSTFYGNDMGWYRQAPGKERELVAAISSGGSTNYADSVKGRFTISRDNAKNTVYLQMNSLKPEDTAVYYCAADDTPDTISGSDYWGQGTQVTVSS,polyreactivity (PSR sort gate),low polyreactivity
QVQLVESGGGLVQAGGSLRLSCAASGSTFYGNDMGWYRQAPGKERELVAAISSGGSTNYADSVKGRFTISRDNAKNTVYLQMNSLKPEDTAVYYCAADDTPDTMYGSDYWGQGTQVTVSS,polyreactivity (PSR sort gate),low polyreactivity
QVQLVESGGGLVQAGGSLRLSCAASGSTFYGYTMGWYRRAPGKERELVAAITFRGGSTYYADSVKGRFTISRDNAKNTVYLQMNSLKPEDTAVYYCAAVGRYSRYPYSDTYGYWGQGTQVTVSS,polyreactivity (PSR sort gate),high polyreactivity
QVQLVESGGGLVQAGGSLRLSCAASGSTFYHYAMGWYRQAPGKERELVAAISTGGSTYYADSVKGRFTISRDNAKNTVYLQMNSLKPEDTAVYYCNARYIGGYGYWGQGTQVTVSS,polyreactivity (PSR sort gate),low polyreactivity
QVQLVESGGGLVQAGGSLRLSCAASGSTFYHYAMGWYRQAPGKERELVATISRRGGSTYYADSVKGRFTISRDNAKNTVYLQMNSLKPEDTAVYYCAAEYARSSRYKISSEMYYWGQGTQVTVSS,polyreactivity (PSR sort gate),high polyreactivity
QVQLVESGGGLVQAGGSLRLSCAASGSTFYINAMGWYRQAPGKERELVADITVRGGNTYYADSVKGRFTISRDNAKNTVYLQMNSLKPEDTAVYYCNALLSGGRAGFDYWGQVTQVTVSS,polyreactivity (PSR sort gate),high polyreactivity
QVQLVESGGGLVQAGGSLRLSCAASGSTFYINTMGWYRQAPGKEREFVAAITWSGGSTYYADSVKGRFTISRDNAKNTVYLQMNSLKPEDTAVYYCAADLYVGDMDYWGQGTQVTVAS,polyreactivity (PSR sort gate),low polyreactivity
QVQLVESGGGLVQAGGSLRLSCAASGSTFYIYAMGWYRQAPGKDRELVARISGSGGSTYYADSVKGRITISRDNAKNTVYLQMNSLKPEDTAVYYCAATKFNSFYWRYGYWGQGTQVTVSS,polyreactivity (PSR sort gate),low polyreactivity
QVQLVESGGGLVQAGGSLRLSCAASGSTFYIYAMGWYRQAPGKERELVAAITWSGSRTYYADSVKGRFTISRDNAKNTVYLQMNSLKPEDTAVYYCAARSYRNNRYKEDYWGQGTQVTVSS,polyreactivity (PSR sort gate),high polyreactivity
QVQLVESGGGLVQAGGSLRLSCAASGSTFYIYAMGWYRQATGKERELVAAIDWNDGSTYYADSVKGRFTISRDNAKNTVYLEMHSLKPEDTAVYYCAAAIYIYRDGTYDYWGQGTQETVSS,polyreactivity (PSR sort gate),high polyreactivity
QVQLVESGGGLVQAGGSLRLSCAASGSTFYIYVMGWYRQAPGKERELVARISSSGGSTYYADSVKGRFTISRDNAKNTVYLQMNSLKPEDTAVYYCNVDYGAWYDYWGQGTQVTVSS,polyreactivity (PSR sort gate),low polyreactivity
QVQLVESGGGLVQAGGSLRLSCAASGSTFYKNAMGWYRQAPGKERELVARISGRGGSTYYADSVKGRFTISRDNAKNTVYLQMNSLKPEDTAVYYCNALYRVFVGTYDYWGQGTQVTVSS,polyreactivity (PSR sort gate),high polyreactivity
QVQLVESGGGLVQAGGSLRLSCAASGSTFYKNSMGWYRQAPGKERELVATISASSTSTYYADSVKGRFTISRDNAKNTVYLQMNSLKPEATAVYYCSKVYVHGSTYGYYWYGYDYWGQGTQVTVSS,polyreactivity (PSR sort gate),low polyreactivity
QVQLVESGGGLVQAGGSLRLSCAASGSTFYKSTMGCYRQPPGKESELVPAISGSATTTYYADSVKGRFTISRDNAKNTVYLQMNSLKPEDTAVYYCAARRFSPGSSGHGYWGQGTQVNVSS,polyreactivity (PSR sort gate),high polyreactivity
QVQLVESGGGLVQAGGSLRLSCAASGSTFYKYAMGWYRQAPGKERELVAAITRSGGSTYYADSVKGRFTISRDNAKNTVYLQMNSLKPEDTAVYYCNADRKSRSKGVGYDYWGQGTQVTVSS,polyreactivity (PSR sort gate),high polyreactivity
QVQLVESGGGLVQAGGSLRLSCAASGSTFYKYAMGWYRQAPGKERELVASITWSGTSTYYADSVKGRFTISRDKAKNTVYLQMNSLKPEDTAVYYCNAGLESYYWGYTWEFDYWGQGTQVTVSS,polyreactivity (PSR sort gate),low polyreactivity
QVQLVESGGGLVQAGGSLRLSCAASGSTFYLNAMGWYRQAPGKEREFVAAIRGGGTSTRYADSVKGRFTISRDNAKNTVYLQMNSLKPEDTAVYFCAAPRVVYRGDYWGQGTQVTVSS,polyreactivity (PSR sort gate),high polyreactivity
QVQLVESGGGLVQAGGSLRLSCAASGSTFYLYAMGWYRQAPGKEREFVAAISWSGGRTYYADSVKGRFTISRDNAKNTVYLQMNSLKPEDTAVYYCAARRRYTWQYTRYDMGYWGQGTQVTVSS,polyreactivity (PSR sort gate),low polyreactivity
QVQLVESGGGLVQAGGSLRLSCAASGSTFYLYAMGWYRQAPGKERELVAAISRGGTTYYADSVKGRFTISRDNAKNTVYLQMNSLKPEETAVYYCNARYTSRRSRRPYYYWGQGTQVTVSS,polyreactivity (PSR sort gate),high polyreactivity
QVQLVESGGGLVQAGGSLRLSCAASGSTFYLYAMGWYRQAPGKERELVAAISWSGDSTYYADSVKGRFTISRDNAKNTVYLQMNSLKPEDTAVYYCAAEFYWGDLSYWGQGTQVSVSS,polyreactivity (PSR sort gate),high polyreactivity
QVQLVESGGGLVQAGGSLRLSCAASGSTFYLYAMGWYRQAPGKERELVAAISWSGGDTYYADSVKGRFTISRDNANNTVYLQMTSLKPEDSAVYYCAAEITYSYPGSPRRRDYWGQGTQVTVSS,polyreactivity (PSR sort gate),low polyreactivity
QVQLVESGGGLVQAGGSLRLSCAASGSTFYLYAMGWYRQAPGKERELVASITSGDGSTYYADSVKGRFTISRDNPKNTVYLQMNSLKPEDTAVYDCNAVLEGWFYQDDYWGQGTQVSVSS,polyreactivity (PSR sort gate),low polyreactivity
QVQLVESGGGLVQAGGSLRLSCAASGSTFYLYAMGWYRQAPGKERELVATITNGGGTNYADSVKGRFTISRDNAKNTVYLQMNSLKAEDTAVYYCAAKWYHRDGDYWGQGTQVTVSS,polyreactivity (PSR sort gate),low polyreactivity
QVQLVESGGGLVQAGGSLRLSCAASGSTFYLYAMGWYRQAPGKERELVAVITTDGSTTYADSVKGRFTISRDNAKNTVYLQMNSLKPEDTAVYYCAAYGGNGQYYSQYDYWGQGTQVTVSS,polyreactivity (PSR sort gate),low polyreactivity
QVQLVESGGGLVQAGGSLRLSCAASGSTFYLYGMGWYRQAPGKERELVAAITYSGGSTYYADSVKGRFTISRDNAKNTVYLQMNSLKPEDTAVYYCNARSQWRSSRFYYWGQGTQVTVSS,polyreactivity (PSR sort gate),high polyreactivity
QVQLVESGGGLVQAGGSLRLSCAASGSTFYNNAMGWYRQAPGKERELVAVITDSGGRTYYADSVKGRFTISRDNAKNTVYLQMNSLKPEDTAVYYCAVVAPGGGDDYWGQGTQVTVSS,polyreactivity (PSR sort gate),low polyreactivity
QVQLVESGGGLVQAGGSLRLSCAASGSTFYNYAMGWYRQAPGKERELVAAITSSGGSTYYADSVKGRFTISRDNAKNTVYLQMNSLKPEDTAVYYCAATRRVRRKSFTYRYDYWGQGTQVTVSS,polyreactivity (PSR sort gate),high polyreactivity
QVQLVESGGGLVQAGGSLRLSCAASGSTFYNYAMGWYRQAPGKERELVAAITSSGGSTYYADSVKGRFTISRDNAKNTVYLQMNSLKPEDTAVYYCNADDGYGQVHSISTYEMDYWGQGTQVTVSS,polyreactivity (PSR sort gate),low polyreactivity
QVQLVESGGGLVQAGGSLRLSCAASGSTFYNYVMGWYRQAPGKERELVAAINWSGCRTYYADSVKGRFTISRDNAKNTVYLQMNSLKPEDTAVYYCAAGYTLPWYKGFDYWGQGTQVTVSS,polyreactivity (PSR sort gate),high polyreactivity
QVQLVESGGGLVQAGGSLRLSCAASGSTFYPYAMGWYRQAPGKERELVAAIRFSGASTYYADSVKGRFTISRDNAKNTVYLQMNSLKPEDTAVYYCAARYVYSWPYRYGYWGQGTQVTVSS,polyreactivity (PSR sort gate),low polyreactivity
QVQLVESGGGLVQAGGSLRLSCAASGSTFYPYAMGWYRQAPGKERELVAAISISGGITYYADSVKGRFTISRDNAKNTVYLQMNSLKPEDTAVYYCAAEYLAVSGYWYDYWGQGTQVTVSS,polyreactivity (PSR sort gate),high polyreactivity
QVQLVESGGGLVQAGGSLRLSCAASGSTFYPYAMGWYRQAPGKERELVAAISSGGSTSYADSVKGRFTISRDNAKNTVYLQMNSLKPEDTAVYYCNASSPGAVPVYYYDYWGQGTQVTVSS,polyreactivity (PSR sort gate),low polyreactivity
QVQLVESGGGLVQAGGSLRLSCAASGSTFYPYDMGWYRQAPGKERELVATMTSTGGSTNYADSVKGRFTISRDNAKNTVYLQMNSLKPEDTAVYYCAKDWNDDQHSWDTPFDYWGQGTQVTVSS,polyreactivity (PSR sort gate),low polyreactivity
QVQLVESGGGLVQAGGSLRLSCAASGSTFYPYLIGWYRQAPGKERELLPAISGGGRTYYADSVKGRFTISRDNAKNTVYLQMNSLKPEDTAVYFCAARYTTYSGRGTRPAGIRYDYWGQGTQVTVSS,polyreactivity (PSR sort gate),high polyreactivity
QVQLVESGGGLVQAGGSLRLSCAASGSTFYRNAMGWYRPAPGKERELVAAINSTDSTNYADSVKGRFTISRDNAKNTVYLQMNSLKPEDTAVYYCAAVGDNLATAEYDYWGQGTQVTVSS,polyreactivity (PSR sort gate),low polyreactivity
QVQLVESGGGLVQAGGSLRLSCAASGSTFYRNAMGWYRQAPGKEREFVAAISFRGGGTYADSVKGRFTISRDNAKNTVYLQMNSLKPEDTAVYYCAADHLSYRRRYEYWGLGTQVTVSS,polyreactivity (PSR sort gate),low polyreactivity
